Columns and labels:
[1] = test system: 3-phosphoglycerate dehydrogenase (PGD); test: PGD enzyme activity in crude extracts (McKitrick and Pizer test); format: biochemical, Escherichia coli; details: crude extract of strain expressing plasmid-encoded serA allele; backward reaction, NADH oxidation at 340 nm
Description: (§1) For example, the PGD activity can be determined in analogy with the method described by McKitrick and Pizer (1980, J. Bacteriol. 141:235-245). The backward reaction is used to measure the enzyme activity in an assay sample which contains phosphohydroxypyruvate and NADH/H^+. The reaction is started by adding enzyme and is monitored in a spectrophotometer by way of the decrease in extinction at 340 nm which is caused by oxidation of the NADH/H^+.
(§2) At an optical density of 1.0, serA expression was in each case induced by adding 0.4 mM […] and the culture was incubated for a further 3 hours. The cells were subsequently harvested by centrifugation, washed and resuspended in 2 ml of buffer (100 mM K-phosphate, pH 7.0; 10 mM MgCl2; 1 mM dithiothreitol). The cells were disrupted using a French press (Spectronic Instruments, Inc. Rochester, N.Y., USA) at a pressure of 18 000 psi. The crude extracts were clarified by centrifugation at 30 000 g and PGD activity was determined using the McKitrick and Pizer test (1980, J. Bacteriol. 141:235-245).

[2] = molecular target: 3-phosphoglycerate dehydrogenase (PGD); test: Inhibition of PGD activity by L-serine, inhibitor constant Ki; format: biochemical, Escherichia coli; details: Ki = inhibitor concentration at which activity is 50% of activity without inhibitor
Description: as §1, §2

| Molecule | Activity [1] [units/mg] | Ki [2] [mM] |
| --- | --- | --- |
| serA: Escherichia coli wild-type 3-phosphoglycerate dehydrogenase (PGD, SEQ ID NO: 2) encoded by the serA gene (protein, listed as Escherichia coli) MAKVSLEKDKIKFLLVEGVHQKALESLRAAGYTNIEFHKGALDDEQLKESIRDAHFIGLRSRTHLTEDVINAAEKLVAIGCFCIGTNQVDLDAAAKRGIPVFNAPFSNTRSVAELVIGELLLLLRGVPEANAKAHRGVWNKLAAGSFEARGKKLGIIGYGHIGTQLGILAESLGMYVYFYDIENKLPLGNATQVQHLSDLLNMSDVVSLHVPENPSTKNMMGAKEISLMKPGSLLINASRGTVVDIPALCDALASKHLAGAAIDVFPTEPATNSDPFTSPLCEFDNVLLTPHIGGSTQEAQENIGLEVAGKLIKYSDNGSTLSAVNFPEVSLPLHGGRRLMHIHENRPGVLTALNKIFAEQGVNIAAQYLQTSAQMGYVVIDIEADEDVAEKALQAMKAIPGTIRARLLY | 0.05 | < 0.1 |
| serA416: E. coli PGD variant with replacement G349R (protein, UniProt P0A9T0 2-410, looked up, variant G349R) D-3-phosphoglycerate …: AKVSLEKDKIKFLLVEGVHQKALESLRAAGYTNIEFHKGALDDEQLKESIRDAHFIGLRSRTHLTEDVINAAEKLVAIGCFCIGTNQVDLDAAAKRGIPVFNAPFSNTRSVAELVIGELLLLLRGVPEANAKAHRGVWNKLAAGSFEARGKKLGIIGYGHIGTQLGILAESLGMYVYFYDIENKLPLGNATQVQHLSDLLNMSDVVSLHVPENPSTKNMMGAKEISLMKPGSLLINASRGTVVDIPALCDALASKHLAGAAIDVFPTEPATNSDPFTSPLCEFDNVLLTPHIGGSTQEAQENIGLEVAGKLIKYSDNGSTLSAVNFPEVSLPLHGGRRLMHIHENRPRVLTALNKIFAEQGVNIAAQYLQTSAQMGYVVIDIEADEDVAEKALQAMKAIPGTIRARLLY | 0.04 | 15 |
| serA445: E. coli PGD variant with replacement G349C (protein, UniProt P0A9T0 2-410, looked up, variant G349C) D-3-phosphoglycerate …: AKVSLEKDKIKFLLVEGVHQKALESLRAAGYTNIEFHKGALDDEQLKESIRDAHFIGLRSRTHLTEDVINAAEKLVAIGCFCIGTNQVDLDAAAKRGIPVFNAPFSNTRSVAELVIGELLLLLRGVPEANAKAHRGVWNKLAAGSFEARGKKLGIIGYGHIGTQLGILAESLGMYVYFYDIENKLPLGNATQVQHLSDLLNMSDVVSLHVPENPSTKNMMGAKEISLMKPGSLLINASRGTVVDIPALCDALASKHLAGAAIDVFPTEPATNSDPFTSPLCEFDNVLLTPHIGGSTQEAQENIGLEVAGKLIKYSDNGSTLSAVNFPEVSLPLHGGRRLMHIHENRPCVLTALNKIFAEQGVNIAAQYLQTSAQMGYVVIDIEADEDVAEKALQAMKAIPGTIRARLLY | 0.04 | 5 |
| serA420: E. coli PGD variant with replacement G349H (protein, UniProt P0A9T0 2-410, looked up, variant G349H) D-3-phosphoglycerate …: AKVSLEKDKIKFLLVEGVHQKALESLRAAGYTNIEFHKGALDDEQLKESIRDAHFIGLRSRTHLTEDVINAAEKLVAIGCFCIGTNQVDLDAAAKRGIPVFNAPFSNTRSVAELVIGELLLLLRGVPEANAKAHRGVWNKLAAGSFEARGKKLGIIGYGHIGTQLGILAESLGMYVYFYDIENKLPLGNATQVQHLSDLLNMSDVVSLHVPENPSTKNMMGAKEISLMKPGSLLINASRGTVVDIPALCDALASKHLAGAAIDVFPTEPATNSDPFTSPLCEFDNVLLTPHIGGSTQEAQENIGLEVAGKLIKYSDNGSTLSAVNFPEVSLPLHGGRRLMHIHENRPHVLTALNKIFAEQGVNIAAQYLQTSAQMGYVVIDIEADEDVAEKALQAMKAIPGTIRARLLY | 0.05 | 10 |
| serA417: E. coli PGD variant with replacement G349W (protein, UniProt P0A9T0 2-410, looked up, variant G349W) D-3-phosphoglycerate …: AKVSLEKDKIKFLLVEGVHQKALESLRAAGYTNIEFHKGALDDEQLKESIRDAHFIGLRSRTHLTEDVINAAEKLVAIGCFCIGTNQVDLDAAAKRGIPVFNAPFSNTRSVAELVIGELLLLLRGVPEANAKAHRGVWNKLAAGSFEARGKKLGIIGYGHIGTQLGILAESLGMYVYFYDIENKLPLGNATQVQHLSDLLNMSDVVSLHVPENPSTKNMMGAKEISLMKPGSLLINASRGTVVDIPALCDALASKHLAGAAIDVFPTEPATNSDPFTSPLCEFDNVLLTPHIGGSTQEAQENIGLEVAGKLIKYSDNGSTLSAVNFPEVSLPLHGGRRLMHIHENRPWVLTALNKIFAEQGVNIAAQYLQTSAQMGYVVIDIEADEDVAEKALQAMKAIPGTIRARLLY | 0.02 | 8 |
| serA40: E. coli PGD variant, mutation at codon 349 printed G349 (G349D per Table 3) (protein, UniProt P0A9T0 2-410, looked up, variant G349D) D-3-phosphoglycerate …: AKVSLEKDKIKFLLVEGVHQKALESLRAAGYTNIEFHKGALDDEQLKESIRDAHFIGLRSRTHLTEDVINAAEKLVAIGCFCIGTNQVDLDAAAKRGIPVFNAPFSNTRSVAELVIGELLLLLRGVPEANAKAHRGVWNKLAAGSFEARGKKLGIIGYGHIGTQLGILAESLGMYVYFYDIENKLPLGNATQVQHLSDLLNMSDVVSLHVPENPSTKNMMGAKEISLMKPGSLLINASRGTVVDIPALCDALASKHLAGAAIDVFPTEPATNSDPFTSPLCEFDNVLLTPHIGGSTQEAQENIGLEVAGKLIKYSDNGSTLSAVNFPEVSLPLHGGRRLMHIHENRPDVLTALNKIFAEQGVNIAAQYLQTSAQMGYVVIDIEADEDVAEKALQAMKAIPGTIRARLLY | 0.05 | 25 |
| serA422: E. coli PGD variant with replacement G349Q (protein, UniProt P0A9T0 2-410, looked up, variant G349Q) D-3-phosphoglycerate …: AKVSLEKDKIKFLLVEGVHQKALESLRAAGYTNIEFHKGALDDEQLKESIRDAHFIGLRSRTHLTEDVINAAEKLVAIGCFCIGTNQVDLDAAAKRGIPVFNAPFSNTRSVAELVIGELLLLLRGVPEANAKAHRGVWNKLAAGSFEARGKKLGIIGYGHIGTQLGILAESLGMYVYFYDIENKLPLGNATQVQHLSDLLNMSDVVSLHVPENPSTKNMMGAKEISLMKPGSLLINASRGTVVDIPALCDALASKHLAGAAIDVFPTEPATNSDPFTSPLCEFDNVLLTPHIGGSTQEAQENIGLEVAGKLIKYSDNGSTLSAVNFPEVSLPLHGGRRLMHIHENRPQVLTALNKIFAEQGVNIAAQYLQTSAQMGYVVIDIEADEDVAEKALQAMKAIPGTIRARLLY | 0.05 | 15 |
| serA418: E. coli PGD variant with replacement G349Y (protein, UniProt P0A9T0 2-410, looked up, variant G349Y) D-3-phosphoglycerate …: AKVSLEKDKIKFLLVEGVHQKALESLRAAGYTNIEFHKGALDDEQLKESIRDAHFIGLRSRTHLTEDVINAAEKLVAIGCFCIGTNQVDLDAAAKRGIPVFNAPFSNTRSVAELVIGELLLLLRGVPEANAKAHRGVWNKLAAGSFEARGKKLGIIGYGHIGTQLGILAESLGMYVYFYDIENKLPLGNATQVQHLSDLLNMSDVVSLHVPENPSTKNMMGAKEISLMKPGSLLINASRGTVVDIPALCDALASKHLAGAAIDVFPTEPATNSDPFTSPLCEFDNVLLTPHIGGSTQEAQENIGLEVAGKLIKYSDNGSTLSAVNFPEVSLPLHGGRRLMHIHENRPYVLTALNKIFAEQGVNIAAQYLQTSAQMGYVVIDIEADEDVAEKALQAMKAIPGTIRARLLY | 0.05 | 6 |
| serA419: E. coli PGD variant with replacement G349F (protein, UniProt P0A9T0 2-410, looked up, variant G349F) D-3-phosphoglycerate …: AKVSLEKDKIKFLLVEGVHQKALESLRAAGYTNIEFHKGALDDEQLKESIRDAHFIGLRSRTHLTEDVINAAEKLVAIGCFCIGTNQVDLDAAAKRGIPVFNAPFSNTRSVAELVIGELLLLLRGVPEANAKAHRGVWNKLAAGSFEARGKKLGIIGYGHIGTQLGILAESLGMYVYFYDIENKLPLGNATQVQHLSDLLNMSDVVSLHVPENPSTKNMMGAKEISLMKPGSLLINASRGTVVDIPALCDALASKHLAGAAIDVFPTEPATNSDPFTSPLCEFDNVLLTPHIGGSTQEAQENIGLEVAGKLIKYSDNGSTLSAVNFPEVSLPLHGGRRLMHIHENRPFVLTALNKIFAEQGVNIAAQYLQTSAQMGYVVIDIEADEDVAEKALQAMKAIPGTIRARLLY | 0.05 | 10 |
| serA421: E. coli PGD variant with replacement G349N (protein, UniProt P0A9T0 2-410, looked up, variant G349N) D-3-phosphoglycerate …: AKVSLEKDKIKFLLVEGVHQKALESLRAAGYTNIEFHKGALDDEQLKESIRDAHFIGLRSRTHLTEDVINAAEKLVAIGCFCIGTNQVDLDAAAKRGIPVFNAPFSNTRSVAELVIGELLLLLRGVPEANAKAHRGVWNKLAAGSFEARGKKLGIIGYGHIGTQLGILAESLGMYVYFYDIENKLPLGNATQVQHLSDLLNMSDVVSLHVPENPSTKNMMGAKEISLMKPGSLLINASRGTVVDIPALCDALASKHLAGAAIDVFPTEPATNSDPFTSPLCEFDNVLLTPHIGGSTQEAQENIGLEVAGKLIKYSDNGSTLSAVNFPEVSLPLHGGRRLMHIHENRPNVLTALNKIFAEQGVNIAAQYLQTSAQMGYVVIDIEADEDVAEKALQAMKAIPGTIRARLLY | 0.05 | 15 |
